Results from the supplement of paper PMC10567573.

B1: STK38L (parent)
chain: NWKETLVFPPEVPISEKAKDLILR
B2: GFOD1 (parent)
chain: EEAEELAKEMSVPFYTSRIDEVLL

Variants of: B1
Assay: protein stability index of a GFP-peptide fusion (GPS, HEK-293T) (PSI 1-6); higher = more stable
Settings: c terminus: a fixed tail appended
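Note: lentivirally expressed fusions sorted by FACS into six bins by GFP to DsRed ratio, PSI derived from sequencing read proportions per bin multiplied by bin number.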

Protein stability index of substitutions, site by site:
V12: F 3.05, Y 2.62, Q 2.89, W 3.95, S 3.86, E 3.72, C 2.73, P 3.48, N 3.26, M 3.15, G 2.92, I 3.52, T 2.97, D 3.55, R 3.92, H 2.72, L 2.67, K 3.76
V7: A 3.52, R 2.72, Q 3.95, S 2.54, P 4.19, F 2.63, W 4.68, K 2.95, L 3.65, T 3.33, D 3.81, H 3.27, M 2.94, C 3.35, I 3.09, Y 2.9, G 4.56, N 3.63, E 3.53
F8: V 3.75, D 3.9, T 3.58, L 2.94, I 3.43, N 3.1, C 4.02, S 3.73, A 4.08, Q 3.53, W 3.5, E 3.98, K 4.21, M 3.78, H 3.33, G 3.02
P9: T 2.9, A 2.69, M 2.05, L 2.32, N 2.78, Y 1.96, H 2.57, E 2.75, F 2.34, C 2.27, R 2.93, Q 4.18, S 3.06, W 1.56, D 2.77, V 2.52, K 2.68, I 2.75, G 1.93
E4: N 1.76, R 1.97, G 2.31, C 2.16, M 2.58, I 1.69, H 2.82, A 2.1, S 2.32, V 2.38, Y 1.32, T 2.57, D 3.01, K 2.47, F 2.29, P 2.85, W 1.78, Q 2.62
N1: S 4.02, M 1.98, C 3.1, D 3.57, Y 2.44, Q 3.09, H 3.04, K 2.9, I 2.18, A 2.16, W 1.78, V 2.41, R 2.74, P 3
E11: R 2.87, Q 3.36, S 2.3, Y 2.21, W 2.63, G 2.65, I 2.52, V 3.03, N 2.69, T 2.68, C 2.89, A 2.87, D 3.15, F 1.92, L 3.58, H 2.81, M 2.39
W2: H 3.46, E 4.15, P 4.09, M 3.54, I 3.32, C 3.67, N 4.14, R 3.39, S 3.01, V 3.59, Y 3.25, D 3.68, Q 4.21, F 3.37, L 3.96, T 4.64, A 4.45
K3: C 2.59, F 1.64, V 2.53, P 3.71, N 3.46, L 2.02, H 3.68, G 3.17, D 3.69, R 3.12, Y 2.18, A 3.37, W 2.07, E 3.41, S 3.17, Q 3.77, I 2.42, M 2.42, T 3.23
P13: G 3.1, K 2.46, R 2.57, E 3.1, H 2.9, D 3.4, N 3.27, F 2.35, M 2.36, C 2.37, L 2.42
L6: W 2.74, S 3.62, Y 3.39, E 3.66, A 4.04, K 3.53, V 3.15, C 3, M 3.31, D 3.93, I 2.86, T 3.46, G 1.5, H 2.61, N 3.55, P 4.16, R 2.83, Q 3.87, F 3.31
T5: H 3.2, Y 2.62, E 2.36, M 2.75, N 3.36, D 3.65, K 2.48, R 3.12, L 2.09, C 2.44, P 3.42, W 2.05, S 2.87, Q 4.08, I 2.53, A 3.27, V 2.61
P10: D 3.43, K 3.03, W 1.78, Y 2.48, S 2.6, M 2.8, H 3.03, F 1.8, C 2.81, G 2.49, Q 3.3, I 2.14, A 2.65, T 3.35, V 3.02, L 2.81

Variants of: B2
Assay: as above
Settings: c terminus: a fixed tail appended

Protein stability index of substitutions, site by site:
D20: K 2.78, W 2.59, I 1.9, E 3.91, G 2.42, N 3.29, R 3.04, Y 2.47, T 2.66, Q 3.79, L 2.07, F 2, M 2.33, A 2.74, V 2.08, P 3.55, H 2.73, C 2.46
R18: I 2.92, Q 4.69, W 3.71, F 3.17, H 4.57, M 3.43, T 4.27, L 3.05, K 4.26, E 4.65, S 4.56, V 2.64, P 4.15, Y 4.04, N 4.4
V22: F 3.73, D 5.23, M 4.29, L 3.1, H 4.68, T 4.51, R 4.26, C 3.7, N 4.21, I 3.23, Y 3.78, A 4.53, W 3.62, S 3.86, P 4.24, E 5.12, Q 4.65
I19: S 4.75, L 3.69, C 4, P 4.48, R 4.57, N 5, Y 4.64, M 3.2, G 4.48, K 4.41, F 3.01, Q 4.93, H 4.85, D 5.04, E 5.1, A 4.54, T 4.11, V 4.31
E21: F 1.42, T 3.65, Q 3.39, N 3.69, P 3.92, D 4.08, S 3.83, M 1.78, V 2.45, W 1.83, Y 2.66, K 2.56, L 1.61, C 1.97, R 2.8, A 2.66
L24: Q 4.78, M 3.73, H 3.18, V 4, E 4.97, F 3.55, P 4.98, C 4.04, G 4.11, N 4.6, Y 3.2, T 4.22, D 5.2, S 4.41, I 3.75
L23: E 5.13, N 4.21, Q 4.72, W 3.02, H 3.9, Y 3.42, R 4.31, V 4.26, G 3.66, P 4.57, I 3.66, S 4.54, D 5.11, T 3.87, F 2.98
